Measurements from patent US20110118131A1 (published 2011).

target: T1, IL-1beta (UniProt P01584 117-269); experiment: Biacore
T1 construct: also called IL-1β

Row | fold difference in affinity vs parental [fold] | binding result | Binder
1 |  | no binding | XPA23 Fab, heavy chain G100F (Fab, V domains shown) VH: EVQLLESGGGLVQPGGSLRLSCAASGFTFSKYFMFWVRQAPGKGLEWVSVISPSGGMTRYADSVKGRFTISRDNSKNTLYLQMNSLRAEDTAVYYCARVFYGGNSDYWGQGTLVTVSS VL: DIQMTQSPSSVSASVGDRLTIICRASQDINRWLAWYQQTPGNAPKLLIHSATSLQSGVPSRFSGSGSGTDFTLTINSLQPEDFATYYCQQADSFPLTFGGGTKVEIK
2 |  | no binding | XPA23 Fab, heavy chain G102W (Fab, V domains shown) VH: EVQLLESGGGLVQPGGSLRLSCAASGFTFSKYFMFWVRQAPGKGLEWVSVISPSGGMTRYADSVKGRFTISRDNSKNTLYLQMNSLRAEDTAVYYCARVGYWGNSDYWGQGTLVTVSS VL: DIQMTQSPSSVSASVGDRLTIICRASQDINRWLAWYQQTPGNAPKLLIHSATSLQSGVPSRFSGSGSGTDFTLTINSLQPEDFATYYCQQADSFPLTFGGGTKVEIK
3 |  | no binding | XPA23 Fab, heavy chain G102H (Fab, V domains shown) VH: EVQLLESGGGLVQPGGSLRLSCAASGFTFSKYFMFWVRQAPGKGLEWVSVISPSGGMTRYADSVKGRFTISRDNSKNTLYLQMNSLRAEDTAVYYCARVGYHGNSDYWGQGTLVTVSS VL: DIQMTQSPSSVSASVGDRLTIICRASQDINRWLAWYQQTPGNAPKLLIHSATSLQSGVPSRFSGSGSGTDFTLTINSLQPEDFATYYCQQADSFPLTFGGGTKVEIK
4 |  | no binding | XPA23 Fab, heavy chain G100D (Fab, V domains shown) VH: EVQLLESGGGLVQPGGSLRLSCAASGFTFSKYFMFWVRQAPGKGLEWVSVISPSGGMTRYADSVKGRFTISRDNSKNTLYLQMNSLRAEDTAVYYCARVDYGGNSDYWGQGTLVTVSS VL: DIQMTQSPSSVSASVGDRLTIICRASQDINRWLAWYQQTPGNAPKLLIHSATSLQSGVPSRFSGSGSGTDFTLTINSLQPEDFATYYCQQADSFPLTFGGGTKVEIK
5 |  | no binding | XPA23 Fab, heavy chain G100Q (Fab, V domains shown) VH: EVQLLESGGGLVQPGGSLRLSCAASGFTFSKYFMFWVRQAPGKGLEWVSVISPSGGMTRYADSVKGRFTISRDNSKNTLYLQMNSLRAEDTAVYYCARVQYGGNSDYWGQGTLVTVSS VL: DIQMTQSPSSVSASVGDRLTIICRASQDINRWLAWYQQTPGNAPKLLIHSATSLQSGVPSRFSGSGSGTDFTLTINSLQPEDFATYYCQQADSFPLTFGGGTKVEIK
6 |  | no binding | XPA23 Fab, heavy chain G102Q (Fab, V domains shown) VH: EVQLLESGGGLVQPGGSLRLSCAASGFTFSKYFMFWVRQAPGKGLEWVSVISPSGGMTRYADSVKGRFTISRDNSKNTLYLQMNSLRAEDTAVYYCARVGYQGNSDYWGQGTLVTVSS VL: DIQMTQSPSSVSASVGDRLTIICRASQDINRWLAWYQQTPGNAPKLLIHSATSLQSGVPSRFSGSGSGTDFTLTINSLQPEDFATYYCQQADSFPLTFGGGTKVEIK
7 |  | no binding | XPA23 Fab, heavy chain G100K (Fab, V domains shown) VH: EVQLLESGGGLVQPGGSLRLSCAASGFTFSKYFMFWVRQAPGKGLEWVSVISPSGGMTRYADSVKGRFTISRDNSKNTLYLQMNSLRAEDTAVYYCARVKYGGNSDYWGQGTLVTVSS VL: DIQMTQSPSSVSASVGDRLTIICRASQDINRWLAWYQQTPGNAPKLLIHSATSLQSGVPSRFSGSGSGTDFTLTINSLQPEDFATYYCQQADSFPLTFGGGTKVEIK

Continued, binder first:

Row | Binder | fold difference in affinity vs parental [fold] | binding result
8 | XPA23 Fab, heavy chain G56N (Fab, V domains shown) VH: EVQLLESGGGLVQPGGSLRLSCAASGFTFSKYFMFWVRQAPGKGLEWVSVISPSGNMTRYADSVKGRFTISRDNSKNTLYLQMNSLRAEDTAVYYCARVGYGGNSDYWGQGTLVTVSS VL: DIQMTQSPSSVSASVGDRLTIICRASQDINRWLAWYQQTPGNAPKLLIHSATSLQSGVPSRFSGSGSGTDFTLTINSLQPEDFATYYCQQADSFPLTFGGGTKVEIK | 1.06 | 
9 | XPA23 Fab, heavy chain G56Y (Fab, V domains shown) VH: EVQLLESGGGLVQPGGSLRLSCAASGFTFSKYFMFWVRQAPGKGLEWVSVISPSGYMTRYADSVKGRFTISRDNSKNTLYLQMNSLRAEDTAVYYCARVGYGGNSDYWGQGTLVTVSS VL: DIQMTQSPSSVSASVGDRLTIICRASQDINRWLAWYQQTPGNAPKLLIHSATSLQSGVPSRFSGSGSGTDFTLTINSLQPEDFATYYCQQADSFPLTFGGGTKVEIK | 1.27 | 
10 | XPA23 Fab, heavy chain G56Q (Fab, V domains shown) VH: EVQLLESGGGLVQPGGSLRLSCAASGFTFSKYFMFWVRQAPGKGLEWVSVISPSGQMTRYADSVKGRFTISRDNSKNTLYLQMNSLRAEDTAVYYCARVGYGGNSDYWGQGTLVTVSS VL: DIQMTQSPSSVSASVGDRLTIICRASQDINRWLAWYQQTPGNAPKLLIHSATSLQSGVPSRFSGSGSGTDFTLTINSLQPEDFATYYCQQADSFPLTFGGGTKVEIK | 1.31 | 
11 | XPA23 Fab, heavy chain G102R (Fab, V domains shown) VH: EVQLLESGGGLVQPGGSLRLSCAASGFTFSKYFMFWVRQAPGKGLEWVSVISPSGGMTRYADSVKGRFTISRDNSKNTLYLQMNSLRAEDTAVYYCARVGYRGNSDYWGQGTLVTVSS VL: DIQMTQSPSSVSASVGDRLTIICRASQDINRWLAWYQQTPGNAPKLLIHSATSLQSGVPSRFSGSGSGTDFTLTINSLQPEDFATYYCQQADSFPLTFGGGTKVEIK |  | no binding
12 | XPA23 Fab, heavy chain G102E (Fab, V domains shown) VH: EVQLLESGGGLVQPGGSLRLSCAASGFTFSKYFMFWVRQAPGKGLEWVSVISPSGGMTRYADSVKGRFTISRDNSKNTLYLQMNSLRAEDTAVYYCARVGYEGNSDYWGQGTLVTVSS VL: DIQMTQSPSSVSASVGDRLTIICRASQDINRWLAWYQQTPGNAPKLLIHSATSLQSGVPSRFSGSGSGTDFTLTINSLQPEDFATYYCQQADSFPLTFGGGTKVEIK |  | no binding
13 | XPA23 Fab, heavy chain G56W (Fab, V domains shown) VH: EVQLLESGGGLVQPGGSLRLSCAASGFTFSKYFMFWVRQAPGKGLEWVSVISPSGWMTRYADSVKGRFTISRDNSKNTLYLQMNSLRAEDTAVYYCARVGYGGNSDYWGQGTLVTVSS VL: DIQMTQSPSSVSASVGDRLTIICRASQDINRWLAWYQQTPGNAPKLLIHSATSLQSGVPSRFSGSGSGTDFTLTINSLQPEDFATYYCQQADSFPLTFGGGTKVEIK | 1.51 | 
14 | XPA23 Fab, heavy chain G102Y (Fab, V domains shown) VH: EVQLLESGGGLVQPGGSLRLSCAASGFTFSKYFMFWVRQAPGKGLEWVSVISPSGGMTRYADSVKGRFTISRDNSKNTLYLQMNSLRAEDTAVYYCARVGYYGNSDYWGQGTLVTVSS VL: DIQMTQSPSSVSASVGDRLTIICRASQDINRWLAWYQQTPGNAPKLLIHSATSLQSGVPSRFSGSGSGTDFTLTINSLQPEDFATYYCQQADSFPLTFGGGTKVEIK |  | no binding
15 | XPA23 Fab, heavy chain G100H (Fab, V domains shown) VH: EVQLLESGGGLVQPGGSLRLSCAASGFTFSKYFMFWVRQAPGKGLEWVSVISPSGGMTRYADSVKGRFTISRDNSKNTLYLQMNSLRAEDTAVYYCARVHYGGNSDYWGQGTLVTVSS VL: DIQMTQSPSSVSASVGDRLTIICRASQDINRWLAWYQQTPGNAPKLLIHSATSLQSGVPSRFSGSGSGTDFTLTINSLQPEDFATYYCQQADSFPLTFGGGTKVEIK | 0.06 | 
16 | XPA23 Fab, heavy chain G102N (Fab, V domains shown) VH: EVQLLESGGGLVQPGGSLRLSCAASGFTFSKYFMFWVRQAPGKGLEWVSVISPSGGMTRYADSVKGRFTISRDNSKNTLYLQMNSLRAEDTAVYYCARVGYNGNSDYWGQGTLVTVSS VL: DIQMTQSPSSVSASVGDRLTIICRASQDINRWLAWYQQTPGNAPKLLIHSATSLQSGVPSRFSGSGSGTDFTLTINSLQPEDFATYYCQQADSFPLTFGGGTKVEIK | 1.17 | 
17 | XPA23 Fab, heavy chain G102K (Fab, V domains shown) VH: EVQLLESGGGLVQPGGSLRLSCAASGFTFSKYFMFWVRQAPGKGLEWVSVISPSGGMTRYADSVKGRFTISRDNSKNTLYLQMNSLRAEDTAVYYCARVGYKGNSDYWGQGTLVTVSS VL: DIQMTQSPSSVSASVGDRLTIICRASQDINRWLAWYQQTPGNAPKLLIHSATSLQSGVPSRFSGSGSGTDFTLTINSLQPEDFATYYCQQADSFPLTFGGGTKVEIK |  | no binding
18 | XPA23 Fab, heavy chain G100R (Fab, V domains shown) VH: EVQLLESGGGLVQPGGSLRLSCAASGFTFSKYFMFWVRQAPGKGLEWVSVISPSGGMTRYADSVKGRFTISRDNSKNTLYLQMNSLRAEDTAVYYCARVRYGGNSDYWGQGTLVTVSS VL: DIQMTQSPSSVSASVGDRLTIICRASQDINRWLAWYQQTPGNAPKLLIHSATSLQSGVPSRFSGSGSGTDFTLTINSLQPEDFATYYCQQADSFPLTFGGGTKVEIK |  | no binding
19 | XPA23 Fab, heavy chain G56R (Fab, V domains shown) VH: EVQLLESGGGLVQPGGSLRLSCAASGFTFSKYFMFWVRQAPGKGLEWVSVISPSGRMTRYADSVKGRFTISRDNSKNTLYLQMNSLRAEDTAVYYCARVGYGGNSDYWGQGTLVTVSS VL: DIQMTQSPSSVSASVGDRLTIICRASQDINRWLAWYQQTPGNAPKLLIHSATSLQSGVPSRFSGSGSGTDFTLTINSLQPEDFATYYCQQADSFPLTFGGGTKVEIK | 2.11 | 
20 | XPA23 Fab, heavy chain G100S (Fab, V domains shown) VH: EVQLLESGGGLVQPGGSLRLSCAASGFTFSKYFMFWVRQAPGKGLEWVSVISPSGGMTRYADSVKGRFTISRDNSKNTLYLQMNSLRAEDTAVYYCARVSYGGNSDYWGQGTLVTVSS VL: DIQMTQSPSSVSASVGDRLTIICRASQDINRWLAWYQQTPGNAPKLLIHSATSLQSGVPSRFSGSGSGTDFTLTINSLQPEDFATYYCQQADSFPLTFGGGTKVEIK | 2.8 | 
21 | XPA23 Fab, heavy chain G100W (Fab, V domains shown) VH: EVQLLESGGGLVQPGGSLRLSCAASGFTFSKYFMFWVRQAPGKGLEWVSVISPSGGMTRYADSVKGRFTISRDNSKNTLYLQMNSLRAEDTAVYYCARVWYGGNSDYWGQGTLVTVSS VL: DIQMTQSPSSVSASVGDRLTIICRASQDINRWLAWYQQTPGNAPKLLIHSATSLQSGVPSRFSGSGSGTDFTLTINSLQPEDFATYYCQQADSFPLTFGGGTKVEIK | 0.05 | 
22 | XPA23 Fab, heavy chain G100Y (Fab, V domains shown) VH: EVQLLESGGGLVQPGGSLRLSCAASGFTFSKYFMFWVRQAPGKGLEWVSVISPSGGMTRYADSVKGRFTISRDNSKNTLYLQMNSLRAEDTAVYYCARVYYGGNSDYWGQGTLVTVSS VL: DIQMTQSPSSVSASVGDRLTIICRASQDINRWLAWYQQTPGNAPKLLIHSATSLQSGVPSRFSGSGSGTDFTLTINSLQPEDFATYYCQQADSFPLTFGGGTKVEIK | 0.09 | 
